A word on the Kd: it is the free concentration of one partner at which half of the binding sites on the other are occupied at equilibrium, for simple one-to-one binding. In general, koff refers to the first-order rate constant of dissociation. Usually kon stands for the second-order rate constant of association.

The assay addresses T1, recombinant human αvβ8 protein (PARS-17102) (human).
T1 construct: also called hu.aVb8.17102; not shown: C-terminal acid/basic coils and any purification tags
T1 alpha: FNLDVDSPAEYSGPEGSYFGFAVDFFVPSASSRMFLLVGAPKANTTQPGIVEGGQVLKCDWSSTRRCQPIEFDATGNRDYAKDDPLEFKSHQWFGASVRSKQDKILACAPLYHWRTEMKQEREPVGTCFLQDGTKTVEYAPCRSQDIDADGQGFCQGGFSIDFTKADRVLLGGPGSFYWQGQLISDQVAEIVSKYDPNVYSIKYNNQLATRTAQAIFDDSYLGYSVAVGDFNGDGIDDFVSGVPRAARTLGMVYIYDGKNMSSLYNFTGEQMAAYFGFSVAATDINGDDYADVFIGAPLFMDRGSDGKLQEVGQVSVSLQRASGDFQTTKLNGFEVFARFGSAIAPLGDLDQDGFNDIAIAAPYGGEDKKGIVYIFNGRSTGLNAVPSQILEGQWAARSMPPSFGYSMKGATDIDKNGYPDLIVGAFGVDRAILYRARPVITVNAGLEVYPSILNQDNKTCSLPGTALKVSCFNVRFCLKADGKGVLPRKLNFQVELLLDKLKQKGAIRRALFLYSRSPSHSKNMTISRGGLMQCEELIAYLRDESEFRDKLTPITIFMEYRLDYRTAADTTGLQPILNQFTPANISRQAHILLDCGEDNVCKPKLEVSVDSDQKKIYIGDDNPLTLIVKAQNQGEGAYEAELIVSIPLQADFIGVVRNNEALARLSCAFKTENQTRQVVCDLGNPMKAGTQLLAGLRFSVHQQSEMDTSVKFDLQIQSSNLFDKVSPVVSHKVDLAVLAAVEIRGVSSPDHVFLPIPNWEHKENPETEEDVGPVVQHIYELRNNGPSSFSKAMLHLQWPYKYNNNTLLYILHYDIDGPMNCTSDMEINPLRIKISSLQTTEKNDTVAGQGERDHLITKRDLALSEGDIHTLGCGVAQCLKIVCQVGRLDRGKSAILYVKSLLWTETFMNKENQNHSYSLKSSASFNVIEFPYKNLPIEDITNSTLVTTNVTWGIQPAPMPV
T1 beta: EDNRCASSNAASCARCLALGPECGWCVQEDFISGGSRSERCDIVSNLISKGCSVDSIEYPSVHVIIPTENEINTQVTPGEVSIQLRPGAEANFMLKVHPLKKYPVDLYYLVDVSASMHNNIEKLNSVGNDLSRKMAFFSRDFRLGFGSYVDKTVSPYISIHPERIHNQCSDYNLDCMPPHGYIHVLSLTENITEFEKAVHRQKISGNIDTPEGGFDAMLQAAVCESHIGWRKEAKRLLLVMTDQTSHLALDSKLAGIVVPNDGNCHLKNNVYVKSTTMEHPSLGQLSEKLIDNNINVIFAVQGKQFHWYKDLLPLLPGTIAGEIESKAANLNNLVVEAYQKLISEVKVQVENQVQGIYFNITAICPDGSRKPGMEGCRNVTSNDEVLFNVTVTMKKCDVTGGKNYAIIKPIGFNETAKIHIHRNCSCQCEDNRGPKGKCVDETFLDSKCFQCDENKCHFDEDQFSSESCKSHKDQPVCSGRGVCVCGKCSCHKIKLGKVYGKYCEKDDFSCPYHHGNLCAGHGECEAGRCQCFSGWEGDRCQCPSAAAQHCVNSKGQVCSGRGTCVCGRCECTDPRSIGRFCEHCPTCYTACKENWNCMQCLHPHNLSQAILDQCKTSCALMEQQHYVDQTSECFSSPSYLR
Nature of the assay: SPR, Biacore T200, Protein A capture, human αvβ8 analyte 0-100 nM, 37 C, 1:1 model (comparison with hADWA11-2.4, FIG. 9B). The procedure:
The antibodies were first captured either on a Biacore™ Protein A biosensor chip (Cytiva Life Sciences) or on an anti-murine Fc chip to achieve approximately 60 response units. Binding measurements were performed using a running buffer composed of 10 mM HEPES (pH 7.4), 150 mM NaCl, 0.5 mM CaCl₂), and 0.005% Surfactant P20 (Cytiva Life Sciences). For comparison between αvβ8-65 and hC6D4, a 5-fold dilution series of human αvβ8 (range, 0-100 nM in running buffer) was injected into the Biacore™ T200. For comparison between αvβ8-65 and hADWA11-2.4, a 5-fold dilution series of human αvβ8 (range, 0-100 nM in running buffer) was injected. For comparison of all three antibodies in the murine Fc format, a 5-fold dilution series of human αvβ8 (range, 0-50 nM in running buffer) was injected. All injections were performed over 180 seconds, with a dissociation time of 1200 seconds, at a flow rate of 100 μL/minute and a temperature of 37° C. Between sample injections, a regeneration reagent (10 mM glycine pH 1.5 for protein A chip; 10 mM glycine pH 1.7 for anti-murine Fc chip) was injected to regenerate the sensor chip (twice, over 30 seconds at 10 μL/minute for each injection). To determine the binding kinetics and affinity constants of the antibodies to human αvβ8 protein, the signal from the reference flow cell (FC1, with only protein A on the surface) was “double referenced” by subtracting the signal observed after injecting the sample over FC1, followed by subtracting the signal observed after injecting only running buffer. The kinetic constants were calculated using nonlinear regression fitting of the data, according to a 1:1 Langmuir binding model, using Biacore™ Evaluation Software (Cytiva Life Sciences).
The values of the kinetic constants kon, koff, and KD for the binding of αvβ8-65, hC6D4 and ADWA11-2.4 to the various species of αvβ8 proteins are summarized in Table 13. A 1:1 Langmuir binding model was used to determine the KD values. The sensograms observed for the bindings of the various αvβ8 proteins to the captured antibody are shown in FIG. 9A, FIG. 9B, and FIG. 10.
(SPR reads the build-up and loss of mass on a sensor chip optically.)

B1: Hu.aVb8-65.H15L2 (aVb8-65.H15L2.hIgG1.LALAPG) (antibody, V domains shown)
VH: EVQLLESGGGLVQPGGSLRLSCAASGIDLSNYAMIWVRQAPGKGLEWVGIISSSDRIWYASWVKGRFTISRDNSKNTLYLQMNSLRAEDTAVYYCSRSVSNSYFDGWNLWGQGTLVTVSS
VL: DIQMTQSPSSVSASVGDRVTITCQASENINSLLAWYQQKPGKAPKLLIYRASTLASGVPSRFSGSGSGTDFTLTISSLQPEDFATYYCQSNYGFTGSGAFFYGFGQGTKVEIKR
notes: Human IgG1 LALAPG; also called PARS-20475-65 (IH) aVb8-65.H15L2.hIgG1.LALAPG; humanized αvβ8-65
On to B1, for which the Kd worked out at 0.528 nM, the koff was found to be 9.58e-05 s⁻¹ and the association rate constant (kon) was 181000 M⁻¹ s⁻¹.

The values above are taken from patent publication US20240327522A1 (Genentech, published 2024).
